Patent publication US20090239794A1, “HCV F PROTEIN AND USES THEREOF” (priority 2004, published 2009)
Several values for one entry are separate records, joined by “and”; a condition that tells them apart may be missing. Equal values may be shown once.

Test system: C57Bl/6 mice
Experiment: Protocol 2: ARFP immunization of mice, total anti-ARFP Ig ELISA
Details: for Titer (ARFP-specific Ig) / ELISA optical density (total anti-ARFP Ig), serum dilution 1/50 / ELISA optical density (total anti-ARFP Ig), serum dilution 1/100 / ELISA optical density (total anti-ARFP Ig), serum dilution 1/200 / ELISA optical density (total anti-ARFP Ig), serum dilution 1/400 / ELISA optical density (total anti-ARFP Ig), serum dilution 1/800 / ELISA optical density (total anti-ARFP Ig), serum dilution 1/1600: individual mice
[1] = 1st immunization (day 0), blood taken prior to immunization, listed as ARFP
[2] = 2nd immunization (day 14), blood taken prior to immunization, listed as ARFP
[3] = 3d immunization (day 29), blood taken prior to immunization, listed as ARFP
[4] = Sacrifice (day 52), listed as ARFP

B1: Fmut8Δ11: truncated recombinant HCV-1a F protein lacking the first 11 N-terminal residues shared with core; SEQ ID NO: 12; produced in E. coli (protein)
chain: PNVTPTVAHRTSSSRVAVRSLVEFTCCRAGALDWVCARRGRLPSGRNLEVDVSLSPRHVGPRAGPGLSPGTLGPSMAMRAADGRDGSCLPVALGLVGAPQTPGVGRAIWVRSSIPSRAASPTSWGTYRSSAPPLEALPGPWRMASGFWRTA
modifications: Hepatitis C virus
1st immunization (day 0), blood taken prior to immunization
  Titer (ARFP-specific Ig): 0
[1]
  ELISA optical density (total anti-ARFP Ig), serum dilution 1/50: 0.211 and 0.209 and 0.199 and 0.218 and 0.323 and 0.278 and 0.229 and 0.166 and 0.236 and 0.243 and 0.247 and 0.208 and 0.206 and 0.205 and 0.217
  ELISA optical density (total anti-ARFP Ig), serum dilution 1/100: 0.128 and 0.115 (2×) and 0.174 and 0.208 and 0.186 and 0.171 and 0.152 and 0.161 (2×) and 0.145 and 0.134 and 0.132 and 0.142 and 0.127
  ELISA optical density (total anti-ARFP Ig), serum dilution 1/200: 0.123 and 0.150 and 0.128 and 0.136 (2×) and 0.114 and 0.111 and 0.121 and 0.113 (2×) and 0.104 and 0.117 and 0.164 and 0.144 and 0.140
  ELISA optical density (total anti-ARFP Ig), serum dilution 1/400: 0.132 and 0.164 and 0.114 and 0.118 and 0.116 and 0.121 and 0.133 and 0.115 and 0.104 and 0.110 and 0.120 and 0.128 and 0.191 and 0.138 and 0.126
  ELISA optical density (total anti-ARFP Ig), serum dilution 1/800: 0.119 and 0.138 and 0.113 and 0.118 and 0.115 (2×) and 0.117 and 0.128 and 0.108 and 0.103 and 0.105 and 0.123 and 0.134 and 0.137 and 0.114
  ELISA optical density (total anti-ARFP Ig), serum dilution 1/1600: 0.138 and 0.122 and 0.109 (2×) and 0.110 and 0.116 and 0.124 and 0.108 and 0.106 and 0.107 and 0.105 and 0.119 and 0.129 and 0.127 and 0.114
[2]
  ELISA optical density (total anti-ARFP Ig), serum dilution 1/50: 0.370 and 0.625 and 0.303 and 0.339 and 0.421 and 3.852 and 0.552 and 0.270 and 2.758 and 0.505 and >4.000 (3×) and 0.189 and 3.567
  ELISA optical density (total anti-ARFP Ig), serum dilution 1/100: 0.187 and 0.306 and 0.155 and 0.164 and 0.156 and 1.842 and 0.204 and 0.153 and 0.560 and 0.191 and 3.323 and 0.141 and 3.184 and >4.000 and 1.876
  ELISA optical density (total anti-ARFP Ig), serum dilution 1/200: 0.168 and 0.183 and 0.128 and 0.126 and 0.133 and 1.337 and 0.149 and 0.124 and 0.295 and 0.144 and 2.201 and 0.112 and 3.227 and >4.000 and 1.851
  ELISA optical density (total anti-ARFP Ig), serum dilution 1/400: 0.173 and 0.152 and 0.136 and 0.129 and 0.122 and 0.777 and 0.133 and 0.123 and 0.204 and 0.131 and 1.212 and 0.111 and 1.433 and 2.473 and 0.736
  ELISA optical density (total anti-ARFP Ig), serum dilution 1/800: 0.156 and 0.130 and 0.123 and 0.121 (2×) and 0.539 and 0.125 and 0.124 and 0.173 and 0.122 and 0.622 and 0.113 and 0.790 and 2.199 and 0.427
  ELISA optical density (total anti-ARFP Ig), serum dilution 1/1600: 0.137 and 0.126 and 0.118 and 0.122 and 0.119 and 0.546 and 0.125 and 0.146 and 0.154 and 0.115 and 0.337 and 0.113 and 0.462 and 1.296 and 0.271
  Titer (ARFP-specific Ig): 0 (9×) and 200 (2×) and 50 and 400 (2×) and >1600
[3]
  ELISA optical density (total anti-ARFP Ig), serum dilution 1/50: 3.831 and 3.849 and 3.373 and 3.573 and 2.987 and 2.874 and 2.626 and 3.470 and 3.517 and 1.225 and 3.635 and 0.801 and 3.936 and 3.926 and >4.000
  ELISA optical density (total anti-ARFP Ig), serum dilution 1/100: 3.525 and 3.898 and 2.898 and 1.264 and 0.982 and 1.468 and 1.197 and 2.613 and 1.648 and 0.560 and >4.000 (2×) and 0.304 and 3.959 and 3.978
  ELISA optical density (total anti-ARFP Ig), serum dilution 1/200: 2.387 and 3.359 and 1.364 and 1.013 and 0.684 and 0.906 and 0.657 and 3.189 and 1.518 and 0.303 and 3.924 and 0.240 and 3.936 and 3.853 and >4.000
  ELISA optical density (total anti-ARFP Ig), serum dilution 1/400: 1.910 and 2.646 and 1.019 and 0.830 and 0.473 and 0.493 and 0.397 and 3.666 and 1.315 and 0.291 and 3.086 and 0.174 and 3.874 and 3.765 and >4.000
  ELISA optical density (total anti-ARFP Ig), serum dilution 1/800: 1.316 and 1.965 and 0.647 and 0.556 and 0.366 and 0.536 and 0.266 and 3.106 and 1.194 and 0.218 and >4.000 and 0.188 and 3.874 and 3.903 and 3.429
  ELISA optical density (total anti-ARFP Ig), serum dilution 1/1600: 0.770 and 1.960 and 0.558 and 0.428 and 0.284 and 0.513 and 0.298 and 3.423 and 1.055 and 0.187 and 3.573 and 0.266 and 3.907 and 3.939 and 3.210
  Titer (ARFP-specific Ig): 800 and >1600 (7×) and 400 (2×) and 100 (2×) and 200 and 50 and 0
Protocol 2, before the 2nd immunization
  ARFP-specific Ig titer, mean+/−standard deviation: 190.0+/−401.7
Protocol 2, day 29
  anti-ARFP Ig titer, mean+/−standard deviation: 883.3+/−694.7
Protocol 2, day 52
  anti-ARFP Ig titer, mean+/−standard deviation: 1493+/−272.0
[4]
  ELISA optical density (total anti-ARFP Ig), serum dilution 1/50: 3.593 and 3.623 and 2.931 and 3.934 and 3.865 and >4.000 and 3.796 and 3.843 and 3.456 and 3.855 and 3.717 and 3.534 and 3.636 and 3.780 and 3.783
  ELISA optical density (total anti-ARFP Ig), serum dilution 1/100: 3.071 and 3.581 and 2.555 and 3.459 and >4.000 (2×) and 3.873 and 3.848 and 3.622 and 3.966 and 1.524 and 2.193 and 3.518 and 2.628 and 3.952
  ELISA optical density (total anti-ARFP Ig), serum dilution 1/200: 1.902 and 1.744 and 1.431 and 2.418 and 2.646 and >4.000 and 3.807 and 3.818 and 3.641 and 3.184 and 3.740 and 1.047 and 2.844 and 2.829 and 3.142
  ELISA optical density (total anti-ARFP Ig), serum dilution 1/400: 1.187 and 1.526 and 0.987 and 1.257 and 2.378 and >4.000 and 3.802 and 3.891 and 3.742 and 3.885 and 3.660 and 1.001 and 3.548 and 3.151 and 3.752
  ELISA optical density (total anti-ARFP Ig), serum dilution 1/800: 1.110 and 1.341 and 0.818 and 1.093 and 2.236 and >4.000 and 3.867 and 3.833 and 3.665 and 3.171 and 3.717 and 0.856 and 3.406 and 3.707 and 3.620
  ELISA optical density (total anti-ARFP Ig), serum dilution 1/1600: 1.589 and 1.086 and 1.084 and 0.771 and 1.427 and >4.000 and 3.813 and 3.843 and 3.612 and 3.055 and 3.832 and 0.510 and 3.562 and 3.780 and 3.976
  Titer (ARFP-specific Ig): >1600 (13×) and 800 (2×)
